In this assay the target is T1, human TSLPR on cells (Ba/F3 cells stably overexpressing hTSLPR/hIL7Rα/Stat5-Luc; primary human monocytes) (human, UniProt Q9HC73 23-371).
T1 sequence (looked up): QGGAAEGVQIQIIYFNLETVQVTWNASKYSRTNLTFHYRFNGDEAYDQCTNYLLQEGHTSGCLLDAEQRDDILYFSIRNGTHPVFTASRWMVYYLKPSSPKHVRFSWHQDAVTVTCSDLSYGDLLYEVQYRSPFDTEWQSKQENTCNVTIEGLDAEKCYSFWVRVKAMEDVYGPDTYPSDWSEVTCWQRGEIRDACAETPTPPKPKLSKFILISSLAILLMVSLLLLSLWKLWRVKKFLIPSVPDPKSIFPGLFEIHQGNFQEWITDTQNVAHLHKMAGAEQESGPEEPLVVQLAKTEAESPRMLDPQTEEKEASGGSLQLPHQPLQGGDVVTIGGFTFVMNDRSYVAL
As to the kind of experiment: cell-based or functional assay.

B1: NV163-1-Fab' (Fab, V domains shown)
VH: QVQLVQSGSELKKPGASVKVSCKASGYTFTSYGISWVRQAPGQGLEWMGWVNTNTGNPRYAQGFTGRFVFSLDTSVSTAYLQISSLKAEDTAVYYCAREGFIRTVVGAAGRFVYWGQGTLVTVSS
VL: DIQMTQSPSSLSASVGDRVTITCRASQDIHTRLAWYQQKPGKAPKLLIYWASTRGSGVPSRFSGSGSGTDFTLTISSLQPEDFATYYCQQYSAYPTFGQGTKLEIK
For B1, the “IC50, luciferase reporter gene assay (Stat5-Luc)” value was 2.7 nM.

B2: NV164-1-IgG1 (antibody, V domains shown)
VH: QVQLVQSGSELKKPGASVKVSCKASGYTFTSYGMSWVRQAPGQGLEWMGWVNTNTGNPRYAQGFTGRFVFSLDTSVSTAYLQISSLKAEDTAVYYCAREGFIRTVVGAAGRFVYWGQGTLVTVSS
VL: DIQMTQSPSSLSASVGDRVTITCRASQDIHTRLAWYQQKPGKAPKLLIYWASTLQSGVPSRFSGSGSGTDFTLTISSLQPEDFATYYCQQYSAYPTFGQGTKLEIKG
In the case of B2, the “IC50, inhibition of TARC secretion from primary human monocytes” value worked out at 0.011 nM; the “IC50, luciferase reporter gene assay (Stat5-Luc), natural human TSLP” value came out at 0.04 nM; the “IC50, luciferase reporter gene assay (Stat5-Luc), recombinant human TSLP” value turned out to be 0.221 nM.

B3: NV115-3B-IgG1 (antibody, V domains shown)
VH: QVQLVQSGAEVKKPGASVKVSCKASGYTFTTYGISWLRQAPGQGLEWMGWVNTNTGNPRYAQGFTGRFVFSLDTSVSTAYLQISSLKAEDTAVYYCAREGFITTVVGAAGRFVYWGQGTLVTVSS
VL: DIQMTQSPSSLSASVGDRVTITCRASQDIHTRLAWYQQKPGQPPKLLIYWASTRASGVPDRFSGTGSGTDFTLTISSLQAEDVAVYYCQQYSTYPTFGQGTKLEIK
As for B3, the “IC50, inhibition of TARC secretion from primary human monocytes” value came to 0.01 nM; the “IC50, luciferase reporter gene assay (Stat5-Luc), natural human TSLP” value worked out at 0.05 nM; the “IC50, luciferase reporter gene assay (Stat5-Luc), recombinant human TSLP” value is 0.126 nM.

B4: NV164-1-Fab' (Fab, V domains shown)
VH: QVQLVQSGSELKKPGASVKVSCKASGYTFTSYGMSWVRQAPGQGLEWMGWVNTNTGNPRYAQGFTGRFVFSLDTSVSTAYLQISSLKAEDTAVYYCAREGFIRTVVGAAGRFVYWGQGTLVTVSS
VL: DIQMTQSPSSLSASVGDRVTITCRASQDIHTRLAWYQQKPGKAPKLLIYWASTLQSGVPSRFSGSGSGTDFTLTISSLQPEDFATYYCQQYSAYPTFGQGTKLEIK
As to B4, the “IC50, luciferase reporter gene assay (Stat5-Luc)” value stood at 4 nM.

(Values after US20090074747A1 (IRM, published 2009).)
